Laboratory results from US20260132193A1 (XBIOTECH, published 2026).

Biological target: T1, recombinant human interleukin 1 alpha (IL-1α) (human, UniProt P01583 113-271)
T1 sequence (looked up): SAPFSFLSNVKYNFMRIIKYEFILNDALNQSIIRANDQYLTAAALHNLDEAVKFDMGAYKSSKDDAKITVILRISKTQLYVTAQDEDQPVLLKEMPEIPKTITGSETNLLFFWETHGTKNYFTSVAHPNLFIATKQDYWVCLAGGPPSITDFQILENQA
Assay: cell-based or functional assay

B1: XIA11 human monoclonal antibody (antibody, V domains shown)
VH: QVQLVQSGAEVKKPGSSVKVSCKASGGRFTNYAILWVRQAPGQGLQWLGGIIPIFDETDHAQDFQDRLTITVDESMTTAYMELSSLRPEDTAIYYCATGSNSYYGLYWGQGTLVTVSS
VL: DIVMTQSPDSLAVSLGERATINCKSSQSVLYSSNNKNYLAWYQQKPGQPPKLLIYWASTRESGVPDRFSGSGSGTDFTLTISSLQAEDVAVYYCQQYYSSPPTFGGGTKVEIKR
B1 was tested, and the “HUVEC-based potency assay (ICAM-1 expression by flow cytometry), IC50” value was 3.4 ng/mL.
